The subject of this series is Saccharomyces cerevisiae. Nature of the series: protein stability index of tFT-peptide fusion (C-terminal peptide) (PSI (0-1 scale)); higher = more stable (slower turnover). The note with it: temperature: 30 C. Here is the method:
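MPS profiling in S. cerevisiae of the yeast C-terminome library: the last 12 aa of each annotated ORF are fused to the C-terminus of a sfGFP-mCherry timer, after a GGGS linker. Cells are FACS-sorted into 8 mCherry/sfGFP bins and deep-sequenced. PSI runs from 0 (unstable) to 1 (stable); wild type and das1Δ backgrounds, two technical replicates each.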

[1] abbreviates: genetic background: das1 deletion.

± gives the standard deviation of the averaged measurements.

GNEPMEKFIQSL [YMR090W C-terminal 12 aa]: the protein stability index was 0.694 ± 0.005 under setting [1] and 0.669 ± 0.0072 (genetic background: wild type).
As to GNSGGSNNSSWW [DED1 C-terminal 12 aa], the protein stability index was 0.71484 ± 0.00065 under setting [1] and 0.697 ± 0.02 (genetic background: wild type).
In the case of GNTGSGGYDNAW [RPB3 C-terminal 12 aa], the protein stability index is, setting by setting: under setting [1], 0.704 ± 0.052; (genetic background: wild type) 0.723 ± 0.026.
The corresponding values for GPDAPLSKMKYE [SCS7 C-terminal 12 aa] are 0.684 ± 0.0086 and 0.704 ± 0.0071.
GQLLSGSCLLNM [YBR226C C-terminal 12 aa]: the protein stability index reads like this: under setting [1], 0.686 ± 0.013; (genetic background: wild type) 0.679 ± 0.053.
Taken in the same sequence, the figures for GRPSMVPIAELK [MLH3 C-terminal 12 aa] were 0.672 ± 0.019 and 0.714 ± 0.062.
The corresponding values for GSGDEPDSKRRK [YCR051W C-terminal 12 aa] are 0.693 ± 0.044 and 0.666 ± 0.037.
The corresponding values for GTQVMYISEQKI [LSM6 C-terminal 12 aa] are 0.698 ± 0.0048 and 0.713 ± 0.016.
Take GVEKYWGILSNE [SCW4 C-terminal 12 aa]: the protein stability index reads like this: under setting [1], 0.723 ± 0.0089; (genetic background: wild type) 0.726 ± 0.039.
On to GVETIAKCIDLL [CAR2 C-terminal 12 aa], for which the protein stability index was 0.71 ± 0.017 under setting [1] and 0.698 ± 0.011 (genetic background: wild type).
Consider GVIIELGSWSAW [YDR415C C-terminal 12 aa], for which the protein stability index by setting is: under setting [1], 0.7055 ± 0.0066; (genetic background: wild type) 0.71701 ± 0.00054.
Turning to GWLQDKHFEKYL [YOR338W C-terminal 12 aa], the protein stability index is 0.705 ± 0.022 under setting [1] and 0.447 ± 0.03 (genetic background: wild type).
Consider HAKGSGNTMNRG [TAP42 C-terminal 12 aa], for which the protein stability index was 0.691 ± 0.029 under setting [1] and 0.664 ± 0.015 (genetic background: wild type).
As for HCQPQEILVLRQ [PEX10 C-terminal 12 aa], the protein stability index amounted to 0.7094 ± 0.0062 under setting [1] and 0.7 ± 0.013 (genetic background: wild type).
Taken in the same sequence, the figures for HDRSESDSDLDI [PLP1 C-terminal 12 aa] were 0.671 ± 0.015 and 0.677 ± 0.015.
The corresponding values for HELSKDFSNLGI [NAM7 C-terminal 12 aa] are 0.7008 ± 0.00089 and 0.683 ± 0.038.
Regarding HGNWSRVVTDLN [BAT2 C-terminal 12 aa], the protein stability index amounted to 0.6869 ± 0.0056 under setting [1] and 0.722 ± 0.1 (genetic background: wild type).
Taken in the same sequence, the figures for HLENELKDQQEL [ATM1 C-terminal 12 aa] were 0.718 ± 0.0099 and 0.715 ± 0.017.
Taken in the same sequence, the figures for HLPKATSLPYEK [YER097W C-terminal 12 aa] were 0.677 ± 0.0085 and 0.679 ± 0.055.
The corresponding values for HPWFAEYYHHAS [PHO85 C-terminal 12 aa] are 0.7438 ± 0.0043 and 0.7174 ± 0.0026.
HRSFFKDIIPEL [KIN82 C-terminal 12 aa]: the protein stability index by setting is: under setting [1], 0.723 ± 0.013; (genetic background: wild type) 0.693 ± 0.022.
Take IAEGKSVGIIGA [HXK2 C-terminal 12 aa]: the protein stability index is, setting by setting: under setting [1], 0.694 ± 0.022; (genetic background: wild type) 0.682 ± 0.018.
Sequence IAKEHDKIPKFL [INA22 C-terminal 12 aa] yielded a protein stability index under setting [1] of 0.695 ± 0.027 and a protein stability index (genetic background: wild type) of 0.672 ± 0.06.
Taken in the same sequence, the figures for IASKNNWLPLQW [SIW14 C-terminal 12 aa] were 0.73114 ± 0.00013 and 0.732 ± 0.045.
Take IDDEDVVSLFAK [RBG2 C-terminal 12 aa]: the protein stability index runs as follows: under setting [1], 0.714 ± 0.035; (genetic background: wild type) 0.732 ± 0.057.
Taken in the same sequence, the figures for IEEAASSLGFKR [PES4 C-terminal 12 aa] were 0.726 ± 0.027 and 0.701 ± 0.023.
The corresponding values for IEELTDTLNSTI [PEX29 C-terminal 12 aa] are 0.7059 ± 0.0039 and 0.698 ± 0.024.
The corresponding values for IEQSFGVIEYFP [SCW11 C-terminal 12 aa] are 0.717 ± 0.037 and 0.71 ± 0.011.
IFHELKRQNSKN [RGD2 C-terminal 12 aa]: the protein stability index worked out at 0.739 ± 0.035 under setting [1] and 0.717 ± 0.052 (genetic background: wild type).
As for “IFVYPLFLLSTF [YEL053W-A C-terminal 12 aa]”, the protein stability index turned out to be 0.482 ± 0.051 under setting [1] and 0.335 ± 0.0099 (genetic background: wild type).
Take IGTLIPEPGVNV [DAP1 C-terminal 12 aa]: the protein stability index under setting [1] was determined as 0.6825 ± 0.0027 and the protein stability index (genetic background: wild type) came to 0.676 ± 0.032.
For IHCRSQNCLSLS [VBA4 C-terminal 12 aa], the protein stability index runs as follows: under setting [1], 0.687 ± 0.024; (genetic background: wild type) 0.681 ± 0.016.
Taken in the same sequence, the figures for IHKENKEFYLIL [YGL118C C-terminal 12 aa] were 0.703 ± 0.015 and 0.6731 ± 0.00094.
As for IIDELEQIALQQ [BRE2 C-terminal 12 aa], the protein stability index runs as follows: under setting [1], 0.69735 ± 0.00015; (genetic background: wild type) 0.748 ± 0.04.
Take IIDELQKCHMQE [CDC27 C-terminal 12 aa]: the protein stability index by setting is: under setting [1], 0.706 ± 0.0081; (genetic background: wild type) 0.6895 ± 0.0016.
In the case of IKCKMPWSSPRQ [YOR238W C-terminal 12 aa], the protein stability index under setting [1] amounted to 0.705 ± 0.03 and the protein stability index (genetic background: wild type) stood at 0.744 ± 0.032.
Take ILDLDPRTEAYC [YGL260W C-terminal 12 aa]: the protein stability index under setting [1] was found to be 0.733 ± 0.02 and the protein stability index (genetic background: wild type) worked out at 0.691 ± 0.013.
ILDMFAKRWILS [IZH3 C-terminal 12 aa] came in with a protein stability index under setting [1] of 0.697 ± 0.015 and a protein stability index (genetic background: wild type) of 0.552 ± 0.043.
On to ILDSFEEWSDEE [HDA1 C-terminal 12 aa], for which the protein stability index is, setting by setting: under setting [1], 0.7224 ± 0.0053; (genetic background: wild type) 0.688 ± 0.0073.
On to ILFSFFCNLVAK [VTC4 C-terminal 12 aa], for which the protein stability index came out at 0.524 ± 0.011 under setting [1] and 0.4997 ± 0.0011 (genetic background: wild type).
The corresponding values for ILKKNPDYREEE [RPN1 C-terminal 12 aa] are 0.696 ± 0.0054 and 0.7029 ± 0.0058.
As to ILTLVETLSEQE [VMA22 C-terminal 12 aa], the protein stability index runs as follows: under setting [1], 0.704 ± 0.009; (genetic background: wild type) 0.7049 ± 0.0056.
With INDKYKSNRTDS [ATG2 C-terminal 12 aa], the protein stability index runs as follows: under setting [1], 0.697 ± 0.022; (genetic background: wild type) 0.7162 ± 0.00084.
The corresponding values for INGIIDPSELSD [ALO1 C-terminal 12 aa] are 0.69 ± 0.029 and 0.68 ± 0.0073.
Taken in the same sequence, the figures for INIVVDMLASQH [RMD1 C-terminal 12 aa] were 0.606 ± 0.025 and 0.591 ± 0.011.
IPLVISYCISEE [ATX2 C-terminal 12 aa] registered a protein stability index under setting [1] of 0.575 ± 0.013 and a protein stability index (genetic background: wild type) of 0.596 ± 0.024.
The corresponding values for IPNIFGKFTVTS [YKL091C C-terminal 12 aa] are 0.697 ± 0.0085 and 0.683 ± 0.013.
The corresponding values for IQAMLKSLDSLK [SNL1 C-terminal 12 aa] are 0.691 ± 0.034 and 0.66 ± 0.03.
With IQEDSPVMDNNT [FAP1 C-terminal 12 aa], the protein stability index stood at 0.722 ± 0.041 under setting [1] and 0.674 ± 0.036 (genetic background: wild type).
The corresponding values for IQVVKSKVLNIE [YDR248C C-terminal 12 aa] are 0.691 ± 0.028 and 0.653 ± 0.016.
Taken in the same sequence, the figures for IRSLPLPFPHMD [MIG1 C-terminal 12 aa] were 0.723 ± 0.0091 and 0.757 ± 0.053.
The corresponding values for IVNVMFCLVRGF [DSC3 C-terminal 12 aa] are 0.42 ± 0.021 and 0.404 ± 0.03.
Sequence IVTKMDLLSYLA [CYS4 C-terminal 12 aa] gave a protein stability index under setting [1] of 0.674 ± 0.013 and a protein stability index (genetic background: wild type) of 0.478 ± 0.0082.
IWCAPTVDARPI [NIT1 C-terminal 12 aa] came in with a protein stability index under setting [1] of 0.7229 ± 0.0014 and a protein stability index (genetic background: wild type) of 0.6998 ± 0.0015.
The corresponding values for IYENDPNTKKNN [ERG3 C-terminal 12 aa] are 0.736 ± 0.022 and 0.72 ± 0.049.
The corresponding values for KAASLSLKSTKY [PRP5 C-terminal 12 aa] are 0.71161 ± 0.00019 and 0.673 ± 0.013.
Taken in the same sequence, the figures for KADIACAGKQLI [YHL042W C-terminal 12 aa] were 0.676 ± 0.0096 and 0.698 ± 0.0097.
With KADNWKCKIQSA [GDA1 C-terminal 12 aa], the protein stability index turned out to be 0.69 ± 0.018 under setting [1] and 0.641 ± 0.011 (genetic background: wild type).
In the case of KAERCQYRLVTA [YCR025C C-terminal 12 aa], the protein stability index is, setting by setting: under setting [1], 0.475 ± 0.031; (genetic background: wild type) 0.508 ± 0.012.
For KAFFISKTLPCI [YLR112W C-terminal 12 aa], the protein stability index amounted to 0.7141 ± 0.0031 under setting [1] and 0.766 ± 0.07 (genetic background: wild type).
On to KAMILTSYRYLE [CLP1 C-terminal 12 aa], for which the protein stability index came to 0.675 ± 0.035 under setting [1] and 0.677 ± 0.056 (genetic background: wild type).
As for KCVNCGHRWKEN [RPC11 C-terminal 12 aa], the protein stability index came to 0.708 ± 0.012 under setting [1] and 0.616 ± 0.02 (genetic background: wild type).
Taken in the same sequence, the figures for KDFQVNKEIKPY [SIR4 C-terminal 12 aa] were 0.713 ± 0.052 and 0.7378 ± 0.00099.
Taken in the same sequence, the figures for KDGDVVYDNGFM [CHS7 C-terminal 12 aa] were 0.7085 ± 0.007 and 0.692 ± 0.01.
As to KDINLSEGNENE [URA8 C-terminal 12 aa], the protein stability index by setting is: under setting [1], 0.6774 ± 0.005; (genetic background: wild type) 0.666 ± 0.067.
For KDKKKDKSNSSI [HMO1 C-terminal 12 aa], the protein stability index was 0.7022 ± 0.0049 under setting [1] and 0.691 ± 0.052 (genetic background: wild type).
The corresponding values for KDSIKLLDKARL [MSS2 C-terminal 12 aa] are 0.774 ± 0.021 and 0.781 ± 0.085.
